Measurements taken from patent US20130064834A1 (published 2013).

Columns and labels:
hPCSK9(D238R) = target: T1, hPCSK9(D238R) (human, UniProt Q8NBP7 31-692); assay: SPR, mAb captured, 25C
T1 construct: mmh-tagged variant hPCSK9
From the text: (§1) Each selected antibody was captured on a F(ab′)2 anti-hIgG surface created through direct chemical coupling to a BIACORE™ chip to form a captured antibody surface.

[1] = target: T2, Chimeric protein #3 (mPro-mCat-hC-term-mmh) (mouse; human); assay: SPR, mAb captured on anti-hFc, 100 nM antigen
T2 chain: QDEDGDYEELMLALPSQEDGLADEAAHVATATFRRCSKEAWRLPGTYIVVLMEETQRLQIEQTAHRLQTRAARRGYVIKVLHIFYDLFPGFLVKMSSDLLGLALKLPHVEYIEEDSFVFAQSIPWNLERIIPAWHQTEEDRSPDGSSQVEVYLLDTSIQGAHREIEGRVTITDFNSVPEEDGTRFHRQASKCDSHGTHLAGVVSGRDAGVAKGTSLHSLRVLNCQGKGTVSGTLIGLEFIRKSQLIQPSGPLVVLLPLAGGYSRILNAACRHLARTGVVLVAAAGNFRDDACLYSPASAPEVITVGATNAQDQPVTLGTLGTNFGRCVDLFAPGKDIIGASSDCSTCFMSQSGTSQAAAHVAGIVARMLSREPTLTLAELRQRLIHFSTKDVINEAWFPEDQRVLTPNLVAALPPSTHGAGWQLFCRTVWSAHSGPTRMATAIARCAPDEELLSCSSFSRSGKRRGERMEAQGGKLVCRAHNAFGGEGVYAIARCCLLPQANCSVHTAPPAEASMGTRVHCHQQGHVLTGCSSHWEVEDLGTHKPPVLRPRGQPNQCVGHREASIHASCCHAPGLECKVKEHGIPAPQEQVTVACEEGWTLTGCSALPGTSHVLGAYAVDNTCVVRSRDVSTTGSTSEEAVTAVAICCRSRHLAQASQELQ
Method: Changes in RU due to the binding of each protein to the mAb surface was determined.

[2] = target: T3, mouse PCSK9, myc-myc-his tagged (mouse, UniProt Q80W65 35-694); assay: SPR, mAb captured on anti-hFc, 37C
T3 construct: also called mPCSK9-mmh; mPCSK9

Human PCSK9-myc-myc-his [3] = target: T4, Human PCSK9-myc-myc-his (human, UniProt Q8NBP7 31-692); assay: SPR, mAb captured on anti-hFc, 37C
T4 construct: also called hPCSK9-mmh; hPCSK9

[4] = target: T5, cynomolgus monkey (Macaca fascicularis) PCSK9, myc-myc-his tagged (cynomolgus monkey (Macaca fascicularis), UniProt A8T662 31-692 (Macaca nemestrina entry), limits assumed); assay: SPR, mAb captured on anti-hFc, 37C
T5 construct: also called mfPCSK9-mmh; mfPCSK9
T5 sequence (A8T662 31-692 limits assumed): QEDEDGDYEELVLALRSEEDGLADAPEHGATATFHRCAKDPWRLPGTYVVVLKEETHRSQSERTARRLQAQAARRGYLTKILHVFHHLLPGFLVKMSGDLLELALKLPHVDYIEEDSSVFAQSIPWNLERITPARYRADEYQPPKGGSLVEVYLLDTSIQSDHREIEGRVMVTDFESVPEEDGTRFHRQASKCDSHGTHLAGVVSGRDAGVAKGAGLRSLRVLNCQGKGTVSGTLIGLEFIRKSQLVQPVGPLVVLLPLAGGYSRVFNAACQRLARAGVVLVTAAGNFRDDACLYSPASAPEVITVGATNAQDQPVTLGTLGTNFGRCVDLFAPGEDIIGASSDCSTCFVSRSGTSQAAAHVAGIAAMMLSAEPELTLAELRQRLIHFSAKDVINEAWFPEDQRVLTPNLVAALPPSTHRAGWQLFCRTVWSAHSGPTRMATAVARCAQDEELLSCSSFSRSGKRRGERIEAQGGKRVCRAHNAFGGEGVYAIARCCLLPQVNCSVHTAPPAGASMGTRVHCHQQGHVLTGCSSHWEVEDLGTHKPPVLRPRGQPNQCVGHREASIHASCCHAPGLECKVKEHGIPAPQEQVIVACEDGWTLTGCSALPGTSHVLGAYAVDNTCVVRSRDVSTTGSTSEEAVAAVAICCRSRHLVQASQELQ

[5] = target: T6, tagged rhesus monkey (Macaca mulata) PCSK9 (rhesus monkey (Macaca mulata), UniProt A8T666 31-692); assay: SPR, mAb captured on anti-hFc, 25C
T6 construct: also called mmPCSK9-mmh; mmPCSK9
T6 sequence (A8T666 31-692 limits assumed): as the sequence (A8T662 31-692 limits assumed) above, with A607P, E639K counted along it

[6] = target: T7, his-tagged Syrian golden hamster (Mesocricetus auratus) PCSK9 (Syrian golden hamster (Mesocricetus …)); assay: SPR, mAb captured on anti-hFc, 25C
T7 construct: also called maPCSK9-h; maPCSK9
T7 chain: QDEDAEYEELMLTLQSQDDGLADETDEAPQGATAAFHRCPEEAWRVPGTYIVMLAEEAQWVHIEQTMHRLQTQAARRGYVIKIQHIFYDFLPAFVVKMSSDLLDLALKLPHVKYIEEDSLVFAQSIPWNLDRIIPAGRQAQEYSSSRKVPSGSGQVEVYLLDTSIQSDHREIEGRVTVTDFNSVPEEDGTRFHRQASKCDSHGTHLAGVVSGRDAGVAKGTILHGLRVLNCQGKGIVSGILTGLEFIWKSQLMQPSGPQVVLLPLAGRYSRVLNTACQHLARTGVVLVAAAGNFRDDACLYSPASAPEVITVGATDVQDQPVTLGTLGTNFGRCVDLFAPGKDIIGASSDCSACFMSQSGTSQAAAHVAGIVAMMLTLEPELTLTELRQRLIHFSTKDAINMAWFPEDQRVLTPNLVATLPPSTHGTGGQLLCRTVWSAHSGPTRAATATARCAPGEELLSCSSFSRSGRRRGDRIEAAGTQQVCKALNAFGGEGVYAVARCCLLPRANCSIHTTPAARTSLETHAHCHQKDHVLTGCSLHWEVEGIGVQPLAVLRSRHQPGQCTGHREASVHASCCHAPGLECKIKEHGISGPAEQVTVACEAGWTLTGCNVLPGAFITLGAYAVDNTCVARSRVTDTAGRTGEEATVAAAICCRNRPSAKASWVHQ

[7] = target: T8, rat (Rattus norvegicus) PCSK9, myc-myc-his tagged (rat (Rattus norvegicus), UniProt P59996 31-691); assay: SPR, mAb captured on anti-hFc, 25C
T8 construct: also called rPCSK9-mmh; rPCSK9
T8 sequence (P59996 31-691 limits assumed): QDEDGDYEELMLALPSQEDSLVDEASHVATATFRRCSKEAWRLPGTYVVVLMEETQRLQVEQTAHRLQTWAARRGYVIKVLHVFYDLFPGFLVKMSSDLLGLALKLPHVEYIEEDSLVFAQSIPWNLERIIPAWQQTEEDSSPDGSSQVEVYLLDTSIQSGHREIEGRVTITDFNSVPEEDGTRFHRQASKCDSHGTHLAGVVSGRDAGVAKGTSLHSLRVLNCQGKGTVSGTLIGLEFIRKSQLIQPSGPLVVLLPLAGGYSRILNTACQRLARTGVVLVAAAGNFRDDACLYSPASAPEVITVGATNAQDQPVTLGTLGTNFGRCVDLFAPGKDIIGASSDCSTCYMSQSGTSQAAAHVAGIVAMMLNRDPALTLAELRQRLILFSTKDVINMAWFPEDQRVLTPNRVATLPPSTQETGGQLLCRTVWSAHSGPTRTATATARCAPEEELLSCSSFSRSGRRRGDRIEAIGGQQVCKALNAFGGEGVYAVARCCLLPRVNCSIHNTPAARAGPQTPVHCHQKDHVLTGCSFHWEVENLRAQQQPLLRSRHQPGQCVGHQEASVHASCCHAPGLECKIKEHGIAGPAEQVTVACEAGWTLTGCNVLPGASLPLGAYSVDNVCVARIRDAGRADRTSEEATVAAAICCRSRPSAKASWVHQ

[8] = target: T3, mouse PCSK9, myc-myc-his tagged; assay: SPR, mAb captured on anti-hFc, 25C
Target sequence in this assay (Q80W65 35-694 limits assumed): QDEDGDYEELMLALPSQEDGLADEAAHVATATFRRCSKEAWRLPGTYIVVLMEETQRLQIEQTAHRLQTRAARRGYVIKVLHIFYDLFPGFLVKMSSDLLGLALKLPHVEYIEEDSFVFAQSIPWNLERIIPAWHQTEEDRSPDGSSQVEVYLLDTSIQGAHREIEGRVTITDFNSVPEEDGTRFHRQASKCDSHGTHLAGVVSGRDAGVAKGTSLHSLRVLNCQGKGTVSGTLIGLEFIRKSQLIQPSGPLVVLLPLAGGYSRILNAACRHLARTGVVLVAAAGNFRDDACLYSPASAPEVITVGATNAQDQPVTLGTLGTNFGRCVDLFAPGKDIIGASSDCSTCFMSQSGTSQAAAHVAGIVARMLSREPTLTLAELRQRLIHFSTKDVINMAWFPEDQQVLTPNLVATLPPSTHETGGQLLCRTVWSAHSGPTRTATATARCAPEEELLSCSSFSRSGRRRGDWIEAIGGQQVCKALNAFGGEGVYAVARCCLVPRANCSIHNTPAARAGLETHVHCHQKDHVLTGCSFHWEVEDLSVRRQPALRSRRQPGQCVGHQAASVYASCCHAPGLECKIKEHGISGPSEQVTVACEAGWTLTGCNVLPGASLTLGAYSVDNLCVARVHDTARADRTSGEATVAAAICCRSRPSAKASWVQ

Human PCSK9-myc-myc-his [9] = target: T4, Human PCSK9-myc-myc-his; assay: SPR, mAb captured on anti-hFc, 25C
hPCSK9(D374Y)-mmh = target: T9, hPCSK9(D374Y)-mmh (human, UniProt Q8NBP7 31-692); assay: SPR, mAb captured on anti-hFc, 25C
T9 construct: also called hPCSK(D374Y)-mmh

[10] = target: T5, cynomolgus monkey (Macaca fascicularis) …; assay: SPR, mAb captured on anti-hFc, 25C
hPCSK9(E366K) = target: T10, hPCSK9(E366K) (human, UniProt Q8NBP7 31-692); assay: SPR, mAb captured, 25C
T10 construct: mmh-tagged variant hPCSK9
From the text: as §1

[11] = target: T6, tagged rhesus monkey (Macaca mulata) …; assay: SPR, mAb captured on anti-hFc, 37C
[12] = target: T5, cynomolgus monkey (Macaca fascicularis) …; assay: SPR, mAb captured on anti-hFc, 37C; remark: listed apart in the source

B1: H1H316P (antibody, V domains shown)
VH: EVQLVESGGGLVQPGGSLRLSCAASGFTFNNYAMNWVRQAPGKGLDWVSTISGSGGTTNYADSVKGRFIISRDSSKHTLYLQMNSLRAEDTAVYYCAKDSNWGNFDLWGRGTLVTVSS
VL: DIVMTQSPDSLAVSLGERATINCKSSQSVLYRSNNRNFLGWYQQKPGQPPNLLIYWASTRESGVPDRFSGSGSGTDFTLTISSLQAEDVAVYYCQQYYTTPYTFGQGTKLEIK
notes: Fully human mAb made in CHO cells; also called mAb316P
hPCSK9(D238R)
  fold reduction of binding affinity against wildtype hPCSK9: > 400 fold
  fold shortening of T1/2 against wildtype hPCSK9: ~30 fold
[1]
  change in RU: 467 RU
[2]
  Kd: 4.7 nM
  T1/2: 3 min
Human PCSK9-myc-myc-his [3]
  Kd: 1.8 nM
  T1/2: 9 min
[4]
  Kd: 1.8 nM
  T1/2: 11 min
[5]
  Kd: 0.55 nM
  T1/2: 92 min
[6]
  Kd: 6.81 nM
  T1/2: 5 min
[7]
  Kd: 14.5 nM
  T1/2: 2 min
[8]
  Kd: 2.3 nM
  T1/2: 11 min
Human PCSK9-myc-myc-his [9]
  Kd: 0.58 nM
  T1/2: 36 min
hPCSK9(D374Y)-mmh
  Kd: 1.69 nM
  T1/2: 15 min
[10]
  Kd: 0.52 nM
  T1/2: 60 min

B2: H1M300N (antibody, V domains shown)
VH: EMQLVESGGGLVQPGGSLRLSCAASGFTFSSHWMKWVRQAPGKGLEWVANINQDGSEKYYVDSVKGRFTISRDNAKNSLFLQMNSLRAEDTAVYYCARDIVLMVYDMDYYYYGMDVWGQGTTVTVSS
VL: not shown
notes: Fully human version made in CHO cells
hPCSK9(E366K)
  fold reduction of binding against wildtype hPCSK9: ~50 fold
[11]
  Kd: 1.6 nM
  T1/2: 26 min
[12]
  Kd: 3.8 nM
  T1/2: 11 min
